Tests used:
[1] = target: T1, leucyl-tRNA synthetase (LRS), endogenous in MEF cell lysate (UniProt Q8BMJ2 1-1178); test: immunoprecipitation with Atg14L antibody from MEF cell lysate, Western blot
T1 construct: Endogenous protein immunoprecipitated from MEF cells

[2] = target: T1, leucyl-tRNA synthetase (LRS), …; test: co-immunoprecipitation from MEF cell lysate, Western blot
Procedure: Particularly, MEF cells stimulated by amino acids by the same manner as described in Example <1-1> were washed with cold PBS. At this time, MEF cells unstimulated with amino acids were used as the control. The cells were lysed in mild lysis buffer (MLB: 10 mM Tris (pH 7.5), 2 mM EDTA, 100 mM NaCl, […], 50 mM NaF, 1 mM Na₃VO₄ and protease inhibitor cocktail (Sigma)). On the other hand, for immunoprecipitation of LRS, the cells were lysed in MIPT buffer. Then, the lysate was microcentrifuged at 13,000×g for 10 minutes to collect supernatant. An antibody was added to the supernatant at 4° C., followed by immunoprecipitation. Reaction was induced in the presence of protein G-agarose or M2-beads (Sigma). The beads were washed with lysis buffer 3 to 5 times, followed by Western blotting according to the conventional method. Immunoprecipitation for Vps34 was performed with protein G-agarose beads, and immunoprecipitation for Flag-LRS was performed with M2-beads.

T1 sequence (Q8BMJ2 whole entry): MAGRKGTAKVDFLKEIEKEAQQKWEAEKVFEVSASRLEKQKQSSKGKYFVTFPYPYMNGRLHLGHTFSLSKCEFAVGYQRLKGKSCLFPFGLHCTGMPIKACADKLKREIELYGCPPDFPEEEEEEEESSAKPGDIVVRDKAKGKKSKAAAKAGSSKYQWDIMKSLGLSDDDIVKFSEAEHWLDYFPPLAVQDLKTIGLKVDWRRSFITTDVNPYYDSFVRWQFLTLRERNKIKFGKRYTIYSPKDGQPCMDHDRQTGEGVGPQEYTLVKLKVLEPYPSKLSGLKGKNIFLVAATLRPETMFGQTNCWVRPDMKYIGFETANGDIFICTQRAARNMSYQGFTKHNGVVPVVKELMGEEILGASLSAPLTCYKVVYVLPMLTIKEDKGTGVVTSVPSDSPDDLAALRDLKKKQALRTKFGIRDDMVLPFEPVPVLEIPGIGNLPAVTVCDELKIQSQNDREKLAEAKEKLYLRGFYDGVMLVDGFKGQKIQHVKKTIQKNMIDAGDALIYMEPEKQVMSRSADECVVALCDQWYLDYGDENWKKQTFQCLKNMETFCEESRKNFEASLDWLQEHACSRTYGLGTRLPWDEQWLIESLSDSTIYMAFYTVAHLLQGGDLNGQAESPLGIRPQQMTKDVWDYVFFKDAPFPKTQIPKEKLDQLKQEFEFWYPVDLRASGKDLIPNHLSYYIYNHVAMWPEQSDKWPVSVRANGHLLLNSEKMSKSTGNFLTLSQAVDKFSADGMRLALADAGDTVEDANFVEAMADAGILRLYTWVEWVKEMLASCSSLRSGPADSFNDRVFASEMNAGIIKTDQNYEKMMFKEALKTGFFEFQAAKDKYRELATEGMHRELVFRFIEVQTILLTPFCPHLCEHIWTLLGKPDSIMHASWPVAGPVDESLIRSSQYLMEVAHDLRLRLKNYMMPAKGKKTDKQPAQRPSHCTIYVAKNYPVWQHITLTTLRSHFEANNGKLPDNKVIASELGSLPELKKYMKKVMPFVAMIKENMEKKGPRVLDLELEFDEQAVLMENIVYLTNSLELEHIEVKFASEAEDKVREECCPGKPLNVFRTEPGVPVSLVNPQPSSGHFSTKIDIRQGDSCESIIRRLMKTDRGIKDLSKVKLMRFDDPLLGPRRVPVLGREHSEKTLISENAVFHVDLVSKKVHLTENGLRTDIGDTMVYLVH

binding result [1] | binding result [2] | Binder
no binding | – | Atg14L, endogenous in MEF cell lysate (other, UniProt Q8CDJ3 1-492, looked up, Endogenous protein; also called autophagic Vps34 complex) MASPSGKGSWTPEAPGFGPRALARDLVDSVDDAEGLYVAVERCPLCNTTRRRLTCAKCVQSGDFVYFDGRDRERFIDKKERLSQLKNKQEEFQKEVLKAMEGKRLTDQLRWKIMSCKMRIEQLKQTICKGNEEMKKNSEGLLKNKEKNQKLYSRAQRHQEKKEKIQRHNRKLGDLVEKKTIDLKSHYERLARLRRSHILELTSIIFPIDEVKTSGRDPADVSSETDSAMTSSMVSKLAEARRTTYLSGRWVCDDHNGDTSISITGPWISLPNNGDYSAYYNWVEEKKTTQGPDMEHNNPAYTISAALGYATQLVNIVSHILDINLPKKLCNSEFCGENLSKQKLTRAVRKLNANILYLCSSQHVNLDQLQPLHTLRNLMHLVSPRSEHLGRSGPFEVRADLEESMEFVDPGVAGESDASGDERVSDEETDLGTDWENLPSPRFCDIPSQPVEVSQSQSTQVSPPIASSSAGGMISSAAASVTSWFKAYTGHR
– | binds | Vps34 (vacuolar protein sorting 34), endogenous in MEF cell lysate (enzyme, UniProt Q6PF93 1-887, looked up, Endogenous protein from MEF cells; also called Vps34 immune complex) MGEAEKFHYIYSCDLDINVQLKIGSLEGKREQKSYKAVLEDPMLKFSGLYQETCSDLYVTCQVFAEGKPLALPVRTSYKAFSTRWNWNEWLKLPVKYPDLPRNAQVALTIWDVYGPGSAVPVGGTTVSLFGKYGMFRQGMHDLKVWPNVEADGSEPTRTPGRTSSTLSEDQMSRLAKLTKAHRQGHMVKVDWLDRLTFREIEMINESEKRSSNFMYLMVEFRCVKCDDKEYGIVYYEKDGDESSPILTSFELVKVPDPQMSMENLVESKHHKLARSLRSGPSDHDLKPNATTRDQLNIIVSYPPTKQLTYEEQDLVWKFRYYLTNQEKALTKFLKCVNWDLPQEAKQALELLGKWKPMDVEDSLELLSSHYTNPTVRRYAVARLRQADDEDLLMYLLQLVQALKYENFDDIKNGLEPTKKDSQTSASESLSNSGVSSGDIDSSQIITNPLPPVASPPPASKAKEVSDGENLEQDLCTFLISRACKNSTLANYLYWYVIVECEDQDTQQRDPKTHEMYLNVMRRFSQALLKGDKSVRVMRSLLAAQQTFVDRLVHLMKAVQRESGNRKKKNERLQALLGDNEKMNLSDVELIPLPLEPQVKIRGIIPETATLFKSALMPAQLFFKTEDGGKYPVIFKHGDDLRQDQLILQIISLMDKLLRKENLDLKLTPYKVLATSTKHGFMQFIQSVPVAEVLDTEGSIQNFFRKYAPSETGPYGISAEVMDTYVKSCAGYCVITYILGVGDRHLDNLLLTKTGKLFHIDFGYILGRDPKPLPPPMKLNKEMVEGMGGTQSEQYQEFRKQCYTAFLHLRRYSNLILNLFSLMVDANIPDIALEPDKTVKKVQDKFRLDLSDEEAVHYMQSLIDESVHALFAAVVEQIHKFAQYWRK

From patent US20200155655A1 (GACHON UNIVERSITY OF INDUSTRY ACADEMIC COOPERATION …, published 2020)
